In publication PMC7074997, “Biodiesel and flavor compound production using a novel promiscuous cold-adapted SGNH-type lipase (HaSGNH1) from the psychrophilic bacterium Halocynthiibacter arcticus” (Biotechnology for Biofuels, 2020):

B1: HaSGNH1 (Falsihalocynthiibacter arcticus) (protein)
chain: MSARVQAETVVIAALGDSLTQGYGLPQEDGLVAQLQGWLDENNHDIRLINAGVSGDTTAGGRSRIEWTLTPDVDAVIVELGGNDMMRGIAPSDSRKNLTEILEILQSRDLPVLLVGLPSANNFGPEFKAEFDDMFPALSTDFETLLYPDFFTSFRTKLNDTSALTTYMQDDAIHPNAKGVAAIVEDFGPLVVELAQQTQE
notes: ORF cloned from genomic DNA (primer starts ATG AGT GCT CGC GTT: MSARV), pET-21a, N-terminal His6 tag, E. coli BL21(DE3)
B2: HaSGNH1 (Falsihalocynthiibacter arcticus; R87L) (protein)
chain: MSARVQAETVVIAALGDSLTQGYGLPQEDGLVAQLQGWLDENNHDIRLINAGVSGDTTAGGRSRIEWTLTPDVDAVIVELGGNDMMLGIAPSDSRKNLTEILEILQSRDLPVLLVGLPSANNFGPEFKAEFDDMFPALSTDFETLLYPDFFTSFRTKLNDTSALTTYMQDDAIHPNAKGVAAIVEDFGPLVVELAQQTQE
notes: as for B1
B3: HaSGNH1 (Falsihalocynthiibacter arcticus; M86E) (protein)
chain: MSARVQAETVVIAALGDSLTQGYGLPQEDGLVAQLQGWLDENNHDIRLINAGVSGDTTAGGRSRIEWTLTPDVDAVIVELGGNDMERGIAPSDSRKNLTEILEILQSRDLPVLLVGLPSANNFGPEFKAEFDDMFPALSTDFETLLYPDFFTSFRTKLNDTSALTTYMQDDAIHPNAKGVAAIVEDFGPLVVELAQQTQE
notes: as for B1
B4: HaSGNH1 (Falsihalocynthiibacter arcticus; M86R) (protein)
chain: MSARVQAETVVIAALGDSLTQGYGLPQEDGLVAQLQGWLDENNHDIRLINAGVSGDTTAGGRSRIEWTLTPDVDAVIVELGGNDMRRGIAPSDSRKNLTEILEILQSRDLPVLLVGLPSANNFGPEFKAEFDDMFPALSTDFETLLYPDFFTSFRTKLNDTSALTTYMQDDAIHPNAKGVAAIVEDFGPLVVELAQQTQE
notes: as for B1

How the values were obtained:
Experiment in all cases: purified protein
Type in all cases: biochemical, Falsihalocynthiibacter arcticus
Settings in all cases: free enzyme, 20 mM Tris-HCl pH 8.0, 25 °C (standard assay)
purified protein [1] = substrate: CC(=O)Oc1ccc([N+](=O)[O-])cc1
purified protein [2] = substrate: CCCC(=O)Oc1ccc([N+](=O)[O-])cc1
purified protein [3] = substrate: CCCCCC(=O)Oc1ccc([N+](=O)[O-])cc1

Protein	Km (purified protein [1])	Vmax (purified protein [1]) [µM/min]	kcat (purified protein [1]) [s⁻¹]	kcat/Km (purified protein [1]) [M⁻¹ s⁻¹]	Km (purified protein [2])	Vmax (purified protein [2]) [µM/min]	kcat (purified protein [2]) [s⁻¹]	kcat/Km (purified protein [2]) [M⁻¹ s⁻¹]	Km (purified protein [3])	Vmax (purified protein [3]) [µM/min]	kcat (purified protein [3]) [s⁻¹]	kcat/Km (purified protein [3]) [M⁻¹ s⁻¹]
B1	0.93 (± 0.15) mM	29.4	8.38 ± 0.53	8900	0.80 (± 0.23) mM	60	17.1 ± 1.83	21300	0.99 (± 0.20) mM	57.6	16.5 ± 1.45	16700
B2					0.68 (± 0.10) mM	69	15 ± 0.84	22200				
B3					1.06 (± 0.23) mM	36.6	4 ± 0.39	3800				
B4					1.26 (± 0.17) mM	46.8	5.1 ± 0.35	4200				
